# Changes are numbered by the printed parent chain.
# T1: ICOS-Ig (human, UniProt Q9Y6W8)
# T1 construct: extracellular domain
# T1 sequence (fusion chain, looked up): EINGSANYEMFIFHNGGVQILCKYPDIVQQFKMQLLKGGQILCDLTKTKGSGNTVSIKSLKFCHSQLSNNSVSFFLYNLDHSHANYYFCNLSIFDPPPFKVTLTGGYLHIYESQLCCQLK
# B1: 3C2 human monoclonal antibody (antibody, IgG1, V domains shown)
# VH: QVQLQESGPGLVKPSETLSLTCTISGGSISNYYWNWIRQPPGKGLEWIGYIYYSTSTKYNPSLKSRVTMSVETSKNQFSLKLSSVTAADTAVYYCARVKVYSTGWFFDYWGQGTLVTVSS
# VL: AIQLTQSPSSLSASVGDRVTITCRASQGISSALAWYQQKPGKAPKLLIYDASSLESGVPSRFSGSGSGTDFTLTISSLQPEDFATYYCQQFNSYPLTFGGGTKVEIK
# B2: 11E2 human monoclonal antibody (antibody, IgG1, V domains shown)
# VH: EVQLVESGGGVIRPGGSLRLSCAASGFTFDDYGMSWVRQAPGKGLEWVSGINWNGGSTGYAASVKGRFTISRDNAKNSLYLQMNSLRAEDSALYYCARDYYYGPGSPNYFYYAMDVWGQGTTVTVSS
# VL: B1 VL with A1D, L4M, A32W, G41E, L46S, D50A, E55Q, F91Y, L96R, G100Q
# notes: kappa light chain (VK L15)
# B3: 1B4 human monoclonal antibody (antibody, IgG1, V domains shown)
# VH: QITLKESGPTLVKPTQTLTLTCTFSGFSLNTIGVGVNWIRQPPGKALEWLALIYWDDDKRYSPSLKRRLTISKDTSKNQVVLTMTNMDPVDTATYYCAHSGITEVRGVIIHYYGMDVWGQGTTVTVSS
# VL: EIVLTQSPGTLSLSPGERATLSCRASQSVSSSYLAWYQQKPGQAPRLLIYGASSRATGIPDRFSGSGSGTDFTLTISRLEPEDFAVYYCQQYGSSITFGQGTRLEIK
# notes: human antibody purified from hybridoma, kappa light chain (VK A27)
# B4: 11-E8D9 (antibody, V domains shown)
# VH: B3 VH with N30S, I32S, N37G, R67S, S72T, S100T, G101S, V108A, H111Y
# VL: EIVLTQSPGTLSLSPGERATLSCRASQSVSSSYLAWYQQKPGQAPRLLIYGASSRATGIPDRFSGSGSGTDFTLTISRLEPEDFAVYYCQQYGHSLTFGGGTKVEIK
# notes: also called 11E8D9.3; E8D9 human monoclonal antibody
# B5: 6A5 human monoclonal antibody (antibody, V domains shown)
# VH: B3 VH with N30S, I32S, N37G, R67S, S72T, T85A, S100I, G101R, H111S
# VL: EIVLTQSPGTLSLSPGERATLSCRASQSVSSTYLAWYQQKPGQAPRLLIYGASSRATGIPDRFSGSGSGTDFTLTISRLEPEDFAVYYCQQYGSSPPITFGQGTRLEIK
# notes: kappa light chain (VK A27)
# B6: 11-4C9 (antibody, V domains shown)
# VH: QITLKESGPTLVKPTQTLTLTCTFSGFSLSTSGVGVAWIRQPPGKALEWLALIYWDDDKRYSPSLKSRLTITKDTSKNQVVLTMSNMDPVDTATYYCAHTRIAEVRGVIYYYYGIDVWGQGTTVTVSS
# VL: EIVLTQSPGTLSLSPGERATLSCRASQSVSSTYLVWYQQKPGQAPRLLIYGASSRATGIPDRFSGSGSGTDFTLTISRLEPEDFAVYYCQQYGSSWTFGQGTKVEIK
# notes: The prefix 11- appears only on the sheets; also called 4C9 human monoclonal antibody
# B7: 10H6 human monoclonal antibody (antibody, V domains shown)
# VH: QVQLVESGGGVVQPGRSLRLSCAASGFTFSSYDMHWVRQAPGKGLEWVAAIWNDGSNKYYADSVKGRFTISRDNSKNTLYLQMNSLRAEDTAVYYCARDRITMVRGVITQYYGMDVWGQGTTVTVSS
# VL: DIQLTQSPSSLSASVGDRVTITCRVSQGISSYLNWYRQKPGKVPKLLIYSASNLQSGVPSRFSGSGSGTDFTLTISSLQPEDVATYYGQRTYNAPYTFGQGTKLEIK
# B8: E4H9 human monoclonal antibody (antibody, V domains shown)
# VH: QVTLRESGPALVKPTQTLTLTCTFSGFSLSTSGMCVSWIRQPPGKALEWLALIDWDDVKYYSSSLKTRLTISKDTSKNQVVLTMTDMDPVDTATYYCARIRFTMFRGVYYYYYGLDVWGQGTTVTVSS
# VL: not shown
# notes: kappa light chain (VK A27)
# How the values were obtained:
# CTLA4-Ig = target: T2, CTLA4-Ig (human, UniProt P16410); assay: ELISA, plate coated with receptor-Ig fusion, antibody at 1 ug/mL, HRP-conjugated detection antibody
# T2 construct: extracellular domain
# Procedure: (§1) ELISA plates were coated overnight with fusion proteins consisting of the extracellular domains of a panel of CD28 receptor family molecules fused to the Fc portion of human IgG (Table 4). The plates were washed and blocked to minimize non-specific binding. A panel of anti-BTLA antibodies and isotype control antibodies (Table 5), and positive control detection antibodies (Table 3), all diluted to 1 ug/mL, were added in duplicate to the assay plates for one hour. After extensive washing the appropriate HRP-conjugated detection antibodies were added to the plates for one hour followed by washing and development using 3, 3′, 5, 5′-tetramethylbenzidine (TMB) as substrate. Optical density measurements at 650 nm were recorded.
# CD28-Ig = target: T3, CD28-Ig (human, UniProt P10747); assay: as above
# T3 construct: extracellular domain
# Procedure: as §1
# TrkB-Ig = target: T4, TrkB-Ig (human, UniProt Q16620); assay: as above
# T4 construct: extracellular domain
# Procedure: as §1
# ICOS-Ig = target: T1, ICOS-Ig; assay: as above
# Procedure: as §1
# PD1-Ig = assay: as above
# Procedure: as §1
# [1] = target: T5, recombinant human BTLA expressed at the cell surface of CHO cells (human, UniProt Q7Z6A9 31-289); assay: FACS blocking assay: antibody pre-incubated with BTLA-CHO cells, then 0.5 ug/ml biotin HVEM Ig, streptavidin-PE detection
# T5 construct: also called BTLA-CHO cells; BTLA CHO cells
# Procedure: The ability of BTLA Mabs to block binding of BTLA to HVEM was also determined by FACS, and is expressed as the concentration of anti-BTLA IgG to block half the maximal binding of HVEM Ig to 10⁵ BTLA CHO cells (IC₅₀). BTLA CHO cells and antibody at various concentrations were pre-incubated for 30 minutes at 4° C., and then 0.5 ug/ml biotin labeled HVEM Ig (R & D Systems BAF 356) was added to the BTLA CHO-IgG mix and incubated for another 30 minutes. Cells were washed 2× in PBS-1% BSA, and binding of biotin HVEM Ig was detected by FACS after staining the cells with streptavidin-PE (BD Parmingen 3554061). IC₅₀ values were determined graphically using the Prism software (GraphPad Software). Results are depicted in FIG. 28B and FIG. 28C.
# [2] = target: T5, recombinant human BTLA expressed at the …; assay: flow cytometry on BTLA-transfected CHO cells, PE anti-human IgG detection, MFI against log nM IgG
# Procedure: Chinese hamster ovary (CHO) cell lines that express recombinant human BTLA at the cell surface were developed and used to determine the specificity of BTLA human monoclonal antibodies by flow cytometry. CHO cells were transfected with expression plasmids containing full length cDNA encoding transmembrane forms of BTLA. Binding of the anti-BTLA human monoclonal antibodies was assessed by incubating the transfected cells with the anti-BTLA human monoclonal antibodies at a concentration from 0.01 nM to 66 nM. The antibodies were incubated with 10⁵ BTLA CHO cells for 60 minutes at 4° C. in PBS1% BSA. […] The EC₅₀ was determined graphically by plotting the mean flourescence intensity (MFI) versus the log of the antibody concentration using Prism graphing software (GraphPad software). Flow cytometric analyses were performed using a FACSArray flow cytometry (Becton Dickinson, San Jose, Calif.). The results are depicted in FIG. 28A.
# [3] = target: T6, recombinant human BTLA fusion protein (human, UniProt Q7Z6A9 31-156); assay: Biacore 3000, antibody captured by anti-CH1, BTLA fusion protein 200 nM in solution
# T6 construct: also called BTLA-Ig; BTLA Ig antigen; not shown: Ig fusion partner
# Procedure: The binding of the 1B4, E4H9, 3C2, 6A5, 11E2 and 10116 antibodies to recombinant BTLA protein was examined by BIAcore™ using an antibody capture method. Each of the six anti-BTLA monoclonal antibodies were captured using anti-CH1, a reagent antibody that is specific towards the heavy chain constant region 1 of human antibody (Zymed, Clone HP6045, Stock conc. 1.0 mg/mL). Anti-CH1 was coated on a CM5 chip (BR-1000-14, Research Grade) at high density (6200-7960 RUs). The coating was carried out based on the standard immobilization procedure recommended by the manufacturer. The 1B4, E4H9, 3C2, 6A5, 11E2 and 10116 purified antibodies, with concentrations ranging from 1-10 μg/mL, were each then captured on the anti-CH1 coated chip surface at a flow-rate of 10 μl/min for 0.5-1 minute. A single concentration of recombinant human BTLA fusion protein (200 nM) was injected over captured antibody for 4 minutes at a flow rate of […]. The antigen was allowed to dissociate for 10 minutes. The chip surface was regenerated after each cycle with 10 μL of 30 mM NaOH, followed by 30 μl of HBS EP wash. Isotype controls were run on the chip, and the data used to subtract non-specific binding. All the experiments were carried out on a Biacore 3000 surface plasmon resonance instrument, using BIAcore Control software v 3.2. Data analysis was carried out using BiaEvaluation v3.2 software.
# [4] = target: T6, recombinant human BTLA fusion protein; assay: Biacore, BTLA fusion protein coupled to CM5 chip, antibody flowed at 267 nM
# Procedure: Anti-BTLA antibodies were characterized for affinities and binding kinetics by Biacore analysis (Biacore AB, Uppsala, Sweden). Purified recombinant human BTLA fusion protein was covalently linked to a CM5 chip (carboxy methyl dextran coated chip) via primary amines, using standard amine coupling chemistry and kit provided by Biacore. Binding was measured by flowing the antibodies in HBS EP buffer (provided by Biacore AB) at a concentration of 267 nM at a flow rate of 50 μl/min. The antigen-antibody association kinetics was followed for 3 minutes and the dissociation kinetics was followed for 7 minutes. The association and dissociation curves were fit to a 1:1 Langmuir binding model using BIAevaluation software (Biacore AB). To minimize the effects of avidity in the estimation of the binding constants, only the initial segment of data corresponding to association and dissociation phases were used for fitting.
# T2 sequence (P16410 36-161): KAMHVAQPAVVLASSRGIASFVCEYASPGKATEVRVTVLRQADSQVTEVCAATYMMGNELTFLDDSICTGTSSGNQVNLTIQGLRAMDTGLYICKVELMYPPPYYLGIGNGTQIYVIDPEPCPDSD
# T5 sequence (Q7Z6A9 31-289 R157S limits assumed): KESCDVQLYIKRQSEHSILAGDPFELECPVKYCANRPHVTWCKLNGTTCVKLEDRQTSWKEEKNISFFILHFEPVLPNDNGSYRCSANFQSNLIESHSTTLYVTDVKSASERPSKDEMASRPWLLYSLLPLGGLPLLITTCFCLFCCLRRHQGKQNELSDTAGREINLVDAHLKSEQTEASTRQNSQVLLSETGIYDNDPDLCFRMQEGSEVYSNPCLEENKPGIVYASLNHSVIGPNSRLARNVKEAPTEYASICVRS
# T6 sequence (Q7Z6A9 other isoform, or with tags, fused parts or gaps): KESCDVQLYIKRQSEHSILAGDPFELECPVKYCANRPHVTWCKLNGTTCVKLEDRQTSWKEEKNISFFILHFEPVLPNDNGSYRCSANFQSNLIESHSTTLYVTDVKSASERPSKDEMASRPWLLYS
# PD1-Ig, sequence (chain, as listed by the source limits assumed): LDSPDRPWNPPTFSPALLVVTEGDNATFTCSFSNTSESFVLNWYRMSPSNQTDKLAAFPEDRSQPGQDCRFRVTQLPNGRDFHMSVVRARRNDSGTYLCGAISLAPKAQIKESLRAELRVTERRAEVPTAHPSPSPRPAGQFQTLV
binder,measurement,setting,value
B1,binding result,CTLA4-Ig,no binding (tested: 1 ug/mL)
same,binding result,CD28-Ig,no binding (tested: 1 ug/mL)
same,binding result,TrkB-Ig,no binding (tested: 1 ug/mL)
same,binding result,ICOS-Ig,no binding (tested: 1 ug/mL)
same,binding result,PD1-Ig,no binding (tested: 1 ug/mL)
same,IC50,[1],1.97 nM
same,EC50,[2],1.78 nM
same,Kd,[3],6.65 nM
same,koff,[3],0.000301 s⁻¹
same,kon,[3],45200 M⁻¹ s⁻¹
same,Kd,[4],0.88 nM
B2,binding result,CTLA4-Ig,no binding (tested: 1 ug/mL)
same,binding result,CD28-Ig,no binding (tested: 1 ug/mL)
same,binding result,TrkB-Ig,no binding (tested: 1 ug/mL)
same,binding result,ICOS-Ig,no binding (tested: 1 ug/mL)
same,binding result,PD1-Ig,no binding (tested: 1 ug/mL)
same,IC50,[1],2.73 nM
same,EC50,[2],3.25 nM
same,Kd,[4],0.61 nM
B3,binding result,CTLA4-Ig,no binding (tested: 1 ug/mL)
same,binding result,TrkB-Ig,no binding (tested: 1 ug/mL)
same,binding result,PD1-Ig,no binding (tested: 1 ug/mL)
same,IC50,[1],1.9 nM
same,EC50,[2],1.34 nM
same,Kd,[3],5.74 nM
same,koff,[3],0.000284 s⁻¹
same,kon,[3],49400 M⁻¹ s⁻¹
same,Kd,[4],2.88 nM
B4,binding result,CTLA4-Ig,no binding (tested: 1 ug/mL)
same,binding result,TrkB-Ig,no binding (tested: 1 ug/mL)
same,binding result,PD1-Ig,no binding (tested: 1 ug/mL)
same,IC50,[1],0.34 nM
same,EC50,[2],0.373 nM
B5,binding result,CTLA4-Ig,no binding (tested: 1 ug/mL)
same,binding result,TrkB-Ig,no binding (tested: 1 ug/mL)
same,binding result,PD1-Ig,no binding (tested: 1 ug/mL)
B6,IC50,[1],1.02 nM
same,EC50,[2],1.56 nM
B7,IC50,[1],2.13 nM
same,EC50,[2],1.89 nM
same,Kd,[3],3.82 nM
same,koff,[3],0.000153 s⁻¹
same,kon,[3],40000 M⁻¹ s⁻¹
B8,binding result,CTLA4-Ig,no binding (tested: 1 ug/mL)
same,binding result,TrkB-Ig,no binding (tested: 1 ug/mL)
same,binding result,PD1-Ig,no binding (tested: 1 ug/mL)
same,IC50,[1],1.05 nM
same,EC50,[2],1.55 nM
same,Kd,[3],0.006 nM
same,koff,[3],3e-07 s⁻¹
same,kon,[3],45700 M⁻¹ s⁻¹
same,Kd,[4],0.13 nM
